Reference: patent US20080206243A1 (Genentech, published 2008)

Key:
KDR [1] = molecular target: T1, KDR (UniProt P35968 20-764, limits assumed); assay: soluble radio-immuno receptor-binding assay (RIA)
T1 construct: The receptor construct used in the RIA is not described; also called KDR receptor; VEGFR-2

Flt-1 = molecular target: T2, Flt-1 (UniProt P17948 27-758, limits assumed); assay: soluble radio-immuno receptor-binding assay (RIA); target Flt-1
T2 construct: The receptor construct used in the RIA is not described; also called Flt-1 receptor; VEGFR-1

KDR [2] = molecular target: T1, KDR; assay: soluble radio-immuno receptor-binding assay (RIA); target KDR

T1 sequence (P35968 20-764 limits assumed): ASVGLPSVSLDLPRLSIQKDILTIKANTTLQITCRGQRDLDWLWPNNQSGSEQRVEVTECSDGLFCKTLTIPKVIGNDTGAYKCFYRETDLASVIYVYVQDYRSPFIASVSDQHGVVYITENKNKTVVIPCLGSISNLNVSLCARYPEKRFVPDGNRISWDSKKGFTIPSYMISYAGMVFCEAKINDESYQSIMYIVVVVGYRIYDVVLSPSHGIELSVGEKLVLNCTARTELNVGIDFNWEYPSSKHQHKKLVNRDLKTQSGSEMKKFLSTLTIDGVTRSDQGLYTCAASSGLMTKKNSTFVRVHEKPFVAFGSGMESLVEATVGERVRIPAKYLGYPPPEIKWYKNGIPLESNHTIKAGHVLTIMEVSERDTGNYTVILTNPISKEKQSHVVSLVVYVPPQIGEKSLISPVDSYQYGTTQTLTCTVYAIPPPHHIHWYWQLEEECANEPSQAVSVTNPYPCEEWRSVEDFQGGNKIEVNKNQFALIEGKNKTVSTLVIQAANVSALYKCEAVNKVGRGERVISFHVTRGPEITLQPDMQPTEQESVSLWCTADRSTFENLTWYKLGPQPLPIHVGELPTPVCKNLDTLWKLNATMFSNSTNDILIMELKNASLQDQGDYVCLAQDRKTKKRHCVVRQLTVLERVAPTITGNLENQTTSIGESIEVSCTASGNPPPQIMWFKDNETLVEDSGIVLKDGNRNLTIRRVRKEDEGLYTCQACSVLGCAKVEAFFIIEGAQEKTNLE
T2 sequence (P17948 27-758 limits assumed): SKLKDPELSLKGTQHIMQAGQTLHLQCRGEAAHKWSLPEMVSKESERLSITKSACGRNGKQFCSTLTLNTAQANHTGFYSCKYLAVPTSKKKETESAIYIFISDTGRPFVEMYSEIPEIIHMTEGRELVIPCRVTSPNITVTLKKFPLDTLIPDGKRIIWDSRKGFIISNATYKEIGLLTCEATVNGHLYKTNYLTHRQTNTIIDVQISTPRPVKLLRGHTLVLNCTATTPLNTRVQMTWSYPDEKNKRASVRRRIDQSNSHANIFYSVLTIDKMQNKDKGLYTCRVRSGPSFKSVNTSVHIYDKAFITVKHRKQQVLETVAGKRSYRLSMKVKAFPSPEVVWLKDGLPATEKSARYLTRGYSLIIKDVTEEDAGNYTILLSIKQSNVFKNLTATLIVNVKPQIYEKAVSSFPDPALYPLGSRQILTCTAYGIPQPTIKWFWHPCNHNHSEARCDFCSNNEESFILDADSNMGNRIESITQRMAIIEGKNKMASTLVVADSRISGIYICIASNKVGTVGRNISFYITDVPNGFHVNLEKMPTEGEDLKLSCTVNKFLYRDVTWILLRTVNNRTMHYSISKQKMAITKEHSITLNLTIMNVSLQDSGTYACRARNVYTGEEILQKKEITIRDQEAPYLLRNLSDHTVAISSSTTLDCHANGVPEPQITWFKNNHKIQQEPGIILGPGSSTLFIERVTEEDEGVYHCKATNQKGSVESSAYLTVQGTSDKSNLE

Row | Molecule | fold reduction of KDR-binding affinity against native VEGF (KDR [1]) | Kd (Flt-1) | Kd (KDR [2])
1 | I43A/I46A/Q79A/I83A Flt-sel variant (from UniProt P15692 27-135) (ligand) | > 470 fold | – | –
2 | native VEGF(8-109) (ligand, human, UniProt P15692 214-315, looked up, range 8-109; Residues 8-109 are counted on the native (mature) 165-amino acid VEGF, not on the precursor with its signal peptide; the listing holds only primers; also called native protein) GQNHHEVVKFMDVYQRSYCHPIETLVDIFQEYPDEIEYIFKPSCVPLMRCGGCCNDEGLECVPTEESNITMQIMRIKPHQGQHIGEMSFLQHNKCECRPKKD | – | 400 pM | 500 pM
